Reference: patent publication US20260216326A1 (PROMETHEUS BIOSCIENCES, published 2026)

T1: human TL1A (human, UniProt O95150 72-251, limits assumed)
T1 construct: also called tumor necrosis factor-like cytokine 1A; TNFSF15
T1 sequence (looked up): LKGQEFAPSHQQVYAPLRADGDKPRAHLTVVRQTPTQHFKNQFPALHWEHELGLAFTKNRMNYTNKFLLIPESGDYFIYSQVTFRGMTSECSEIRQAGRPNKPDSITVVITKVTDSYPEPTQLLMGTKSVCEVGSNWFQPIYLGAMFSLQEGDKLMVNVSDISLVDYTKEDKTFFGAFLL


Target: T1, human TL1A
Experiment: ELISA titration on plate-coated human TL1A, unpurified culture supernatant

Kd	Binder
79 pM	A179 (antibody, IgG1, V domains shown) VH: QVQLVQSGAEVKKPGASVKVSCKASGFDIQDTYMHWVKQAPGQGLEWMGRIEPASGHIKYDPKFQGRATMTRDTSTSTVYMELSSLRSEDTAVYYCARSGGLPDWWGQGTTVTVSS VL: EIVLTQSPGTLSLSPGERATLSCRASSSVSYMYWYQQKPGQAPRPLIYATSNLASGIPDRFSGSGSGTDFTLTISRLEPEDFAVYYCQQWEGNPRTFGGGTKLEIK
63 pM	A188 (antibody, IgG1, V domains shown) VH: QVQLVQSGAEVKKPGASVKVSCKASGFDIQDTYMHWVKQRPGQGLEWIGRIDPASGHTKYDPKFQVRVTITTDTSTSTAYLELSSLRSEDTAVYYCARSGGLPDVWGQGTTVTVSS VL: EIVLTQSPGTLSLSPGERATLSCRASSSVSYMYWYQQKPGQAPRLLIYATSNLASGIPDRFSGSGSGTDFTLTISRLEPEDFAVYYCQQWEGNPRTFGGGTKLEIK
61 pM	A184 (antibody, IgG1, V domains shown) VH: QVQLVQSGAEVKKPGASVKVSCKASGFDIQDTYMHWVKQRPGQGLEWIGRIDPASGHTKYDPKFQVRATITRDTSTSTAYLELSSLRSEDTAVYYCARSGGLPDVWGQGTTVTVSS VL: EIVLTQSPGTLSLSPGERATLSCRASSSVSYMYWYQQKPGQAPRLLIYATSNLASGIPDRFSGSGSGTDFTLTISRLEPEDFAVYYCQQWEGNPRTFGGGTKLEIK
56 pM	A185 (antibody, IgG1, V domains shown) VH: QVQLVQSGAEVKKPGASVKVSCKASGFDIQDTYMHWVKQRPGQGLEWIGRIDPASGHTKYDPKFQVRATMTRDTSTSTAYLELSSLRSEDTAVYYCARSGGLPDVWGQGTTVTVSS VL: EIVLTQSPGTLSLSPGERATLSCRASSSVSYMYWYQQKPGQAPRLLIYATSNLASGIPDRFSGSGSGTDFTLTISRLEPEDFAVYYCQQWEGNPRTFGGGTKLEIK
57 pM	A191 (antibody, IgG1, V domains shown) VH: QVQLVQSGAEVKKPGASVKVSCKASGFDIQDTYMHWVKQRPGQGLEWIGRIDPASGHTKYDPKFQVRATITTDTSTSTAYMELSSLRSEDTAVYYCARSGGLPDVWGQGTTVTVSS VL: EIVLTQSPGTLSLSPGERATLSCRASSSVSYMYWYQQKPGQAPRLLIYATSNLASGIPDRFSGSGSGTDFTLTISRLEPEDFAVYYCQQWEGNPRTFGGGTKLEIK
56 pM	A187 (antibody, IgG1, V domains shown) VH: QVQLVQSGAEVKKPGASVKVSCKASGFDIQDTYMHWVKQRPGQGLEWIGRIDPASGHTKYDPKFQVRVTITRDTSTSTAYLELSSLRSEDTAVYYCARSGGLPDVWGQGTTVTVSS VL: EIVLTQSPGTLSLSPGERATLSCRASSSVSYMYWYQQKPGQAPRLLIYATSNLASGIPDRFSGSGSGTDFTLTISRLEPEDFAVYYCQQWEGNPRTFGGGTKLEIK
55 pM	A192 (antibody, IgG1, V domains shown) VH: QVQLVQSGAEVKKPGASVKVSCKASGFDIQDTYMHWVKQRPGQGLEWIGRIDPASGHTKYDPKFQVRATITTDTSTSTVYMELSSLRSEDTAVYYCARSGGLPDVWGQGTTVTVSS VL: EIVLTQSPGTLSLSPGERATLSCRASSSVSYMYWYQQKPGQAPRLLIYATSNLASGIPDRFSGSGSGTDFTLTISRLEPEDFAVYYCQQWEGNPRTFGGGTKLEIK
76 pM	A189 (antibody, IgG1, V domains shown) VH: QVQLVQSGAEVKKPGASVKVSCKASGFDIQDTYMHWVKQRPGQGLEWIGRIDPASGHTKYDPKFQVRVTMTTDTSTSTAYLELSSLRSEDTAVYYCARSGGLPDVWGQGTTVTVSS VL: EIVLTQSPGTLSLSPGERATLSCRASSSVSYMYWYQQKPGQAPRLLIYATSNLASGIPDRFSGSGSGTDFTLTISRLEPEDFAVYYCQQWEGNPRTFGGGTKLEIK
51 pM	A194 (antibody, IgG1, V domains shown) VH: EVQLVQSGAEVKKPGASVKVSCKASGFDIQDTYMHWVRQRPGQGLEWIGRIDPASGHTKYDPKFQVRATITTDTSTSTAYLELSSLRSEDTAVYYCARSGGLPDVWGQGTTVTVSS VL: EIVLTQSPGTLSLSPGERATLSCRASSSVSYMYWYQQKPGQAPRPWIYATSNLASGIPDRFSGSGSGTDFTLTISRLEPEDFAVYYCQQWEGNPRTFGGGTKLEIK
55 pM	A193 (antibody, IgG1, V domains shown) VH: EVQLVQSGAEVKKPGASVKVSCKASGFDIQDTYMHWVKQRPGQGLEWIGRIDPASGHTKYDPKFQVRATITTDTSTSTAYLELSSLRSEDTAVYYCARSGGLPDVWGQGTTVTVSS VL: EIVLTQSPGTLSLSPGERATLSCRASSSVSYMYWYQQKPGQAPRPWIYATSNLASGIPDRFSGSGSGTDFTLTISRLEPEDFAVYYCQQWEGNPRTFGGGTKLEIK
65 pM	A183 (antibody, IgG1, V domains shown) VH: QVQLVQSGAEVKKPGASVKVSCKASGFDIQDTYMHWVKQRPGQGLEWMGRIDPASGHTKYDPKFQVRATITTDTSTSTAYLELSSLRSEDTAVYYCARSGGLPDVWGQGTTVTVSS VL: EIVLTQSPGTLSLSPGERATLSCRASSSVSYMYWYQQKPGQAPRLLIYATSNLASGIPDRFSGSGSGTDFTLTISRLEPEDFAVYYCQQWEGNPRTFGGGTKLEIK
67 pM	A182 (antibody, IgG1, V domains shown) VH: QVQLVQSGAEVKKPGASVKVSCKASGFDIQDTYMHWVKQAPGQGLEWIGRIDPASGHTKYDPKFQVRATITTDTSTSTAYLELSSLRSEDTAVYYCARSGGLPDVWGQGTTVTVSS VL: EIVLTQSPGTLSLSPGERATLSCRASSSVSYMYWYQQKPGQAPRLLIYATSNLASGIPDRFSGSGSGTDFTLTISRLEPEDFAVYYCQQWEGNPRTFGGGTKLEIK
57 pM	A190 (antibody, IgG1, V domains shown) VH: QVQLVQSGAEVKKPGASVKVSCKASGFDIQDTYMHWVKQRPGQGLEWIGRIDPASGHTKYDPKFQVRATITTDTSTSTVYLELSSLRSEDTAVYYCARSGGLPDVWGQGTTVTVSS VL: EIVLTQSPGTLSLSPGERATLSCRASSSVSYMYWYQQKPGQAPRLLIYATSNLASGIPDRFSGSGSGTDFTLTISRLEPEDFAVYYCQQWEGNPRTFGGGTKLEIK
67 pM	A186 (antibody, IgG1, V domains shown) VH: QVQLVQSGAEVKKPGASVKVSCKASGFDIQDTYMHWVKQRPGQGLEWIGRIDPASGHTKYDPKFQVRATMTTDTSTSTAYLELSSLRSEDTAVYYCARSGGLPDVWGQGTTVTVSS VL: EIVLTQSPGTLSLSPGERATLSCRASSSVSYMYWYQQKPGQAPRLLIYATSNLASGIPDRFSGSGSGTDFTLTISRLEPEDFAVYYCQQWEGNPRTFGGGTKLEIK
60 pM	A181 (antibody, IgG1, V domains shown) VH: QVQLVQSGAEVKKPGASVKVSCKASGFDIQDTYMHWVRQRPGQGLEWIGRIDPASGHTKYDPKFQVRATITTDTSTSTAYLELSSLRSEDTAVYYCARSGGLPDVWGQGTTVTVSS VL: EIVLTQSPGTLSLSPGERATLSCRASSSVSYMYWYQQKPGQAPRLLIYATSNLASGIPDRFSGSGSGTDFTLTISRLEPEDFAVYYCQQWEGNPRTFGGGTKLEIK
58 pM	A180 (antibody, IgG1, V domains shown) VH: QVQLVQSGAEVKKPGASVKVSCKASGFDIQDTYMHWVRQAPGQGLEWMGRIEPASGHIKYDPKFQGRATMTRDTSTSTAYMELSSLRSEDTAVYYCARSGGLPDWWGQGTTVTVSS VL: EIVLTQSPGTLSLSPGERATLSCRASSSVSYMYWYQQKPGQAPRPLIYATSNLASGIPDRFSGSGSGTDFTLTISRLEPEDFAVYYCQQWEGNPRTFGGGTKLEIK
